This assay has as its target T1, HCV pseudovirus particles (HCVpp) (hepatitis C virus isolate H77, UniProt P27958 192-383; P27958 384-746).
T1 construct: A pseudovirus particle (HIV-1 NL4.3 luciferase core) that carries E1/E2 on its envelope; Putative splice acceptor sites changed by conservative mutagenesis; also called HIV-1 particles pseudotyped with HCV E1/E2 envelope glycoproteins
Nature of the assay: HCVpp supernatant on HeLa-SIGN transfectants, cell-bound p24 by ELISA. In general terms: ELISA stands for enzyme-linked immunosorbent assay.

B1: L-SIGN-9 (receptor)
chain: MSDSKEPRVQQLGLLEEDPTTSGIRLFPRDFQFQQIHGHKSSTGCLGHGALVLQLLSFMLLAGVLVAILVQVSKVPSSLSQEQSEQDAIYQNLTQLKAAVGELSEKSKLQEIYQELTQLKAAVGELPEKSKLQEIYQELTRLKAAVGELPEKSKLQEIYQELTRLKAAVGELPEKSKLQEIYQELTRLKAAVGELPEKSKLQEIYQELTRLKAAVGELPEKSKLQEIYQELTRLKAAVGELPEKSKLQEIYQELTELKAAVGELPEKSKLQEIYQELTQLKAAVGELPDQSKQQQIYQELTDLKTAFERLCRHCPKDWTFFQGNCYFMSNSQRNWHDSVTACQEVRAQLVVIKTAEEQNFLQLQTSRSNRFSWMGLSDLNQEGTWQWVDGSPLSPSFQRYWNSGEPNNSGNEDCAEFSGSGWNDNRCDVDNYWICKKPAACFRDE
notes: Expressed whole on the surface of stably transfected HeLa cells; also called L-SIGN isoform containing 9 tandem repeats; 9-repeat form of L-SIGN
Turning to B1, the binding result is given as “binds”.

B2: L-SIGN-5 (receptor)
chain: MSDSKEPRVQQLGLLEEDPTTSGIRLFPRDFQFQQIHGHKSSTGCLGHGALVLQLLSFMLLAGVLVAILVQVSKVPSSLSQEQSEQDAIYQNLTQLKAAVGELSEKSKLQEIYQELTQLKAAVGELPEKSKLQEIYQELTRLKAAVGELPEKSKLQEIYQELTRLKAAVGELPEKSKLQEIYQELTQLKAAVGELPDQSKQQQIYQELTDLKTAFERLCRHCPKDWTFFQGNCYFMSNSQRNWHDSVTACQEVRAQLVVIKTAEEQNFLQLQTSRSNRFSWMGLSDLNQEGTWQWVDGSPLSPSFQRYWNSGEPNNSGNEDCAEFSGSGWNDNRCDVDNYWICKKPAACFRDE
notes: Expressed whole on the surface of stably transfected HeLa cells; Encodes repeats 1-4 and 7; also called L-SIGN isoform containing 5 tandem repeats; 5-repeat form of L-SIGN
As to B2, the binding result is on record as “binds”.

B3: L-SIGN-3 (receptor)
chain: MSDSKEPRVQQLGLLEEDPTTSGIRLFPRDFQFQQIHGHKSSTGCLGHGALVLQLLSFMLLAGVLVAILVQVSKVPSSLSQEQSEQDAIYQNLTQLKAAVGELSEKSKLQEIYQELTRLKAAVGELPEKSKLQEIYQELTQLKAAVGELPDQSKQQQIYQELTDLKTAFERLCRHCPKDWTFFQGNCYFMSNSQRNWHDSVTACQEVRAQLVVIKTAEEQNFLQLQTSRSNRFSWMGLSDLNQEGTWQWVDGSPLSPSFQRYWNSGEPNNSGNEDCAEFSGSGWNDNRCDVDNYWICKKPAACFRDE
notes: Expressed whole on the surface of stably transfected HeLa cells; Encodes tandem repeats 1, 3 and 7; also called L-SIGN isoform containing 3 tandem repeats; 3-repeat form of L-SIGN
In the case of B3, the binding result is given as “binds”.

B4: L-SIGN-4 (receptor)
chain: MSDSKEPRVQQLGLLEEDPTTSGIRLFPRDFQFQQIHGHKSSTGCLGHGALVLQLLSFMLLAGVLVAILVQVSKVPSSLSQEQSEQDAIYQNLTQLKAAVGELSEKSKLQEIYQELTRLKAAVGELPEKSKLQEIYQELTRLKAAVGELPEKSKLQEIYQELTQLKAAVGELPDQSKQQQIYQELTDLKTAFERLCRHCPKDWTFFQGNCYFMSNSQRNWHDSVTACQEVRAQLVVIKTAEEQNFLQLQTSRSNRFSWMGLSDLNQEGTWQWVDGSPLSPSFQRYWNSGEPNNSGNEDCAEFSGSGWNDNRCDVDNYWICKKPAACFRDE
notes: Expressed whole on the surface of stably transfected HeLa cells; Encodes repeats 1, 3, 4 and 7; also called L-SIGN isoform containing 4 tandem repeats; 4-repeat form of L-SIGN
As to B4, the binding result is “binds”.
